# Source: the DeepSol protein solubility set
# Experiment: soluble on expression in E. coli; label from the status in PepcDB or PDB records
row,Sequence,soluble on expression in E. coli
1,GPLGSMASKKVCIVGSGNWGSAIAKIVGGNAAQLAQFDPRVTMWVFEEDIGGKKLTEIINTQHENVKYLPGHKLPPNVVAVPDVVQAAEDADILIFVVPHQFIGKICDQLKGHLKANATGISLIKGVDEGPNGLKLISEVIGERLGIPMSVLMGANIASEVADEKFCETTIGCKDPAQGQLLKELMQTPNFRITVVQEVDTVEICGALKNVVAVGAGFCDGLGFGDNTKAAVIRLGLMEMIAFAKLFCSGPVSSATFLESCGVADLITTCYGGRNRKVAEAFARTGKSIEQLEKELLNGQKLQGPETARELYSILQHKGLVDKFPLFMAVYKVCYEGQPVGEFIHCLQNHPEHM,soluble
2,MIVTSLEDLRSRLRAYVSENGLRHTPERYSILEVAYNLKKIFTPDDLFDLTRENGLPVSLSTVYNTLTLLERCGIVLRLPSPETKYQYLMASFAEQCPLLFCTECAQFSTYYRRNVKSILADKDLRPPRFSYRQAIICLYGICDKCRKKQSALKKAADKAAPKKKK,not soluble
3,MGSDKIHHHHHHMPLYQPLTPRLFMRQWRASDLPCFARMNADRRVMRFFPASLTRRQSDAMAERCSMLIDSQGWGFWAVEERSSGLFAGMVGLHRPSGDLPFAPCVEVGWRLDPDHWGKGYATEAAAAALDIAFNTLGLHEVVAFTAVLNTPSQAVMRRLGMRHAMDFEHPAVPADSPLRAHCLYRTDKEEHQRRHGL,not soluble
4,MKAPFFNAPIFRQLIEFKSSTYTYIIGCHKTGKAVIIDPVVDTVSRDIQIIRDLNLDLIYGLNTHVHADHITGTNSLKTVFPTMKSVLSSKSGGEADKYVSDGEIIEIGGLKLEVRETPGHTNGCLTYVEHSLRSAFTGDALLIRACGRTDFQQGNPASLFDSVHDKIFTLPEDYVVYVGHNYNGVLQTTVWEEKNLNPRLTKSKDQFVEIMKNLKLNYPKQIDKAVPANMVDGKGH,not soluble
5,PATSRFYEQHADCLAEQYTSLKFEDVHASWRAFWPQARDRVLDVGAGSGRDAKWMAEHGCEVIAIEPAQALLRFGKSYCGDSVTWLEDGLPKLEKTINLGFRFDLILVSAVWMHLAPTHRERAFRKLANLLAPNGRLVISLRHGDFSDGRKAYPVSVEELEKFAKNRALMVRNVSLDDDQLQ,not soluble
6,MGGSFGKKGASSATAAQVPLATETTPGLMSPSEKLKLSTLTTSIATSDFYASYDFMMHSIGLTSANNISLLSTGNISLQNILSEGNHFGVQPIVSSTTANASFLAGMLMAIFPKESELEVTVYFKTPSAFNPAQLTVIGSTSIGLGISDRSGLIIENGNAFGGIVKASAATETGSTYALSTSTWYICKFKMLTDDRFKVTLYSDSGTQLYSYTSTAAMFRADNATAHIGFKTQCKTATAGISLISIDLIEFKAKVSATRAKV,soluble
7,RSVAYDLIFGNKNTTKYYAQFVKEHKTHLYEQIKQINNDEFRFVEKTKRHNLG,not soluble
8,MLSRICGNGIRLTRTRLQFQPSIVTFRDYSNPAPKRGFLNNLIDNVRDEMQKNKELQEHQQQLKARMQELNESDALKDARKKFEIVEKETLKSSEVVKQKIEELSDHMKKMVHEIQKTEAGKKMTEAGAEALKQARKAAEHVEKVAEKVGDTEVYKHVSTSMKTVKDEIDNIADVRMYSRPEALTKRTDGFDLEKERVVEANDSATDVTLHKDSKWYSGWKNFSESNTYYHKLLDWKIKYDESDNMAVRMMRGVTEKIGSVFSGQNEVSEVLTEIHKIDANFDKQEWLRFCETKIIPNILEAFIRFDLEVLQSWCHERAYTQLSTVVKEYQKMHFSTKDSRIIDINKVEMATGKMMEQGPVLIISFQVYMINVTKNADGKVVEGDPDNPKRINHIWVLCRDVEEYNPALAWKLLEVHMQETPLAL,not soluble
9,MSLIKVLIVDDHALVRMGIRRLLEDMSDVDVVADAESGEQALAYVKTHSPDVVLLDMKMPGIDGWEVTRRLKKTNPNIKVIAVTAICSDPLPTRVLQLGAMGYLTKESGAEEMAAAIRKVAKGEKYLSAEIAQKMAINSLQESQDSPFDLLSEREMQVMLMITSGMNVQDIADRLFLSSKTINGYRYRMFEKLGIKNDVELTYLAMKHRIIEHPNDLSQDDEGHHHHHH,soluble
10,AHHHHHHASAKWVCKICGYIYDEDAGDPDNGISPGTKFEELPDDWVCPICGAPKSEFEKLEDGSFKLYSLAREFARDLLFEINGDVVTLSIKGVLLANTSSTSSNFSIFEVSENEFILAIQTSGYVVYLGIEAEEEIEEEVYPSLVRIIISEVMPIINNLVQVAKELSYKGADILLDDNMSSSLREAMYNLLLKHKKGKSPYEQVEVA,soluble
11,MRQHTRIANHNHYSWRIAVMTDTHSIAQPFEAEVSPANNRHVTVGYASRYPDYSRIPAITLKGQWLEAAGFATGTAVDVKVMEGCIVLTAQPPAAEESELMQSLRQVCKLSARKQKQVQAFIGVIAGKQKVA,not soluble
12,MSTTDDTHNTLSTGKCPFHQGGHDRSAGAGTASRDWWPNQLRVDLLNQHSNRSNPLGEDFDYRKEFSKLDYSALKGDLKALLTDSQPWWPADWGSYVGLFIRMAWHGAGTYRSIDGRGGAGRGQQRFAPLNSWPDNVSLDKARRLLWPIKQKYGQKISWADLFILAGNVALENSGFRTFGFGAGREDVWEPDLDVNWGDEKAWLTHRHPEALAKAPLGATEMGLIYVNPEGPDHSGEPLSAAAAIRATFGNMGMNDEETVALIAGGHTLGKTHGAAAASHVGADPEAAPIEAQGLGWASSYGSGVGADAITSGLEVVWTQTPTQWSNYFFENLFKYEWVQTRSPAGAIQFEAVDAPDIIPDPFDPSKKRKPTMLVTDLTLRFDPEFEKISRRFLNDPQAFNEAFARAWFKLTHRDMGPKARYIGPEVPKEDLIWQDPLPQPLYQPTQEDIINLKAAIAASGLSISEMVSVAWASASTFRGGDKRGGANGARLALAPQRDWDVNAVAARVLPVLEEIQKTTNKASLADIIVLAGVVGIEQAAAAAGVSISVPFAPGRVDARQDQTDIEMFSLLEPIADGFRNYRARLDVSTTESLLIDKAQQLTLTAPEMTVLVGGMRVLGTNFDGSQNGVFTDRPGVLSTDFFANLLDMRYEWKPTDDANELFEGRDRLTGEVKYTATRADLVFGSNSVLRALAEVYACSDAHEKFVKDFVAAWVKVMNLDRFDLQ,not soluble
13,MAHHHHHHMSALAKKMMEKYGWKEGEGLGKERSGIKSYVKVTRRDPHTATGLGHAADPAQGGSLASTHAVELDAIYGQLHKETRKRQRQSSKARVDQGDTSEDEVDNGGELSDVSSTNSGASSSSSADSKSEGKAAVAARAAVKRQRRAPSSSPSNSGNDGDDRTDSKRSKGEHIGDVTRMSDKELFQRCGGVRLGRAGRHRLFDGKLKRIQDSS,soluble
14,MGSDKIHHHHHHMLDAQHIQALKEIVGEENCFDDKAHKLAYCYDATRNRYEPDAVIFPRCEEDVSRLLAYCNTHKITIVPRGAGSGFTGGSLPVNGGIVLAFEKHMNKILEIDMENMVARVQPGVVNKRLQEAVEAMGLFYPPDPASEEYSTLGGNVSENAGGMRAAKYGITKDYVMALRAVLPNGDIIRAGKKTIKDVAGYNIAGILIASEGTLAVITEITLKLLSKPKLRQSAMGVFPTIESAMNAVYKTMAAGVTPVAMEFLDNLTIRAVESKFSKGLPVEAGAILITDMDGNLPEEIELQMAKIEEKFKENGALSFKKAASEEEAKDLWFARRNASQSVTIYGKKKLNEDITVPRSKLPELLQRINAISERYGVKTPCFGHTGDGNVHVNVMVEDGSDPKQLEIGHQAIEEIFKAAVELEGTLSGEHGIGISKAPFMHLAFTPEEMNLFRAIKQAFDPNNILNNGKMAL,not soluble
15,MRDWVIPPISCPENEKGEFPKNLVQIKSNRDKETKVFYSITGQGADKPPVGVFIIERETGWLKVTQPLDREAIAKYILYSHAVSSNGEAVEDPMEIVITVTDQNDNRPEFTQEVFEGSVAEGAVPGTSVMKVSATDADDDVNTYNAAIAYTIVSQDPELPHKNMFTVNRDTGVISVLTSGLDRESYPTYTLVVQAADLQGEGLSTTAKAVITVKDINDNAPVFNPS,soluble
16,MAHHHHHHMFLIVDAGDMLVEGLFVEANNTTLHYREKFIVKNTDGSMAINAASMTRQLHPRKQMHLHPSSLPIAIHQDNRTPLQHMLRGTHHMQRPTVVSCNTPTMAIMKGTEDVVLRRDTTTRHAGAQFRALQDLLQLKRARAGHTHLTSRSKWIGLDRQKRTPHRF,not soluble
17,MDMKRRIHLELRNRTPAAVRELVLDNCKAMDGKIEGLTDEFVNLEFLSLISVGLFSVSDLPKLPKLKKLELSENRIFGGLDRLAEELPSLTHLNLSGNNLKDISTLEPLKRLDCLKSLDLFGCEVTNRSDYRETVFRLLPQLSYLDGYDREDQEAPDSDVEVDSVEEAPDSDGEVDGVDKEEEDEEGEDEEEEEDEDGEEEEDEDEEDEDEDEDVEGEDDEDEVSGEEEEFGHDGEVDEDEEDEDEDEDEEEEESGKGEKRKRETDDEGEDD,soluble
18,CGPQYRFVWKGGEGGIGDAANALDSGKIIAIKGIGGYHIACLTEDDVVLRLRKLLNRPQQPFAVMVRDLSSAERVAELSNEERAELLSPARPIVVVRKKLPFEAVAPELDTIGIMLPYTPLHHLLFQELKADYLVMTSANLPGEPMYIDESIMEKMELDGFLVHNLEIANRVDDSVVKYVGGRRLLIRRSRGFVPQPIKIDIGFN,not soluble
19,MRKKSSSNKEETALHPPPENFETATAELEQIVAGMETGQMSLEDALSAYKRGVELLQYCQNILKNSQQQIKILEADMLKHFSPAEHDAS,not soluble
20,MAYVTWLLAILHVHKDSFEIAAPSDSYLSAEPGQDVTLTCQLPRTWPVQQVIWEKVQPHQVDILASCNLSQETRYTSKYLRQTRSNCSQGSMKSILIIPNAMAADSGLYRCRSEAITGKNKSFVIRLIITDGE,not soluble
21,MSLVDLDLTQIQKDILYALITLYKKKSGGSVKGEEIAELINRNPGTVRNQMQALRALGLVEGVPGPKGGYRPTSKAYELLSVTRPEESVVVPVVVNGNVMEELSAEEIVLPSISNPNICQARIRIIGDIKKINPGDSVIVGPTPVNEMMVYGKVVGRDDTENTIVLDIEKIVALPKDTVGEHMSSPIISVDAEESVVNAAKVLAENGIYCTPVQKNGKFVGIFTLDHVAKAVAEGKLNAKVEEVMRPKLVMVEKDTKIGEALRLMRDEKVRILLVTDKGEPVGVITDQKILTRLAPEQVETEGHHHHHH,soluble
22,MERSLDSLAGMAKSAFGAGTSAAMRQATSPKTILEYIINFFTCGGIRRRNETQYQELIETMAETLKSTMPDRGAPLPENIILDDMDGCRVEFNLPGENNEAGQVIVRVSKGDHSETREIPLASFEKICRALLFRCEFSLPQDSVILTAQGGMNLKGAVLTGANLTSENLCDADLSGANLEGAVLFMADCEGANFKGANLSGTSLGDSNFKNACLEDSIMCGATLDHANLTGANLQHASLLGCSMIECNCSGANMDHTNLSGATLIRADMSGATLQGATIMAAIMEGAVLTRANLRKASFISTNLDGADLAEANLNNTCFKDCTLTDLRTEDATMSTSTQTLFNEFYSENI,not soluble
23,MANPELLEEQREETRLIIEELLEDGSDPDALYTIEHHLSADDFETLEKAAVEAFKLGYEVTEPEELEVEEGDTVICCDILSECALNAELIDAQVEQLMNLAEKYDVEYDGWGTYFEDPNGEEGDDDDYVDEDDDGVRH,not soluble
24,MSVTFPSSGCPSFFNIFYEEGIVMKLTIYYDGQFWVGVVEVVDNGKLRAFRHLFGKEPRDSEVLEFVHNQLLNMMAQAEQEGVRLQGRRQKKINPKRLQRQVSKELKNAGVTSKAQEAIKLELEARKQKKKQIMKEQREHVKEQRYMLKKQKAKKKHRGKLEHHHHHH,soluble
